The record followed here is paper doi:10.1101/2024.06.05.597643, “Identification and characterization of a human MORC2 DNA binding region that is required for gene silencing” (bioRxiv, 2024).

Data set [1] addresses T1, MORC2 wild type, dephosphorylated (Homo sapiens) (UniProt Q9Y6X9).
T1 sequence: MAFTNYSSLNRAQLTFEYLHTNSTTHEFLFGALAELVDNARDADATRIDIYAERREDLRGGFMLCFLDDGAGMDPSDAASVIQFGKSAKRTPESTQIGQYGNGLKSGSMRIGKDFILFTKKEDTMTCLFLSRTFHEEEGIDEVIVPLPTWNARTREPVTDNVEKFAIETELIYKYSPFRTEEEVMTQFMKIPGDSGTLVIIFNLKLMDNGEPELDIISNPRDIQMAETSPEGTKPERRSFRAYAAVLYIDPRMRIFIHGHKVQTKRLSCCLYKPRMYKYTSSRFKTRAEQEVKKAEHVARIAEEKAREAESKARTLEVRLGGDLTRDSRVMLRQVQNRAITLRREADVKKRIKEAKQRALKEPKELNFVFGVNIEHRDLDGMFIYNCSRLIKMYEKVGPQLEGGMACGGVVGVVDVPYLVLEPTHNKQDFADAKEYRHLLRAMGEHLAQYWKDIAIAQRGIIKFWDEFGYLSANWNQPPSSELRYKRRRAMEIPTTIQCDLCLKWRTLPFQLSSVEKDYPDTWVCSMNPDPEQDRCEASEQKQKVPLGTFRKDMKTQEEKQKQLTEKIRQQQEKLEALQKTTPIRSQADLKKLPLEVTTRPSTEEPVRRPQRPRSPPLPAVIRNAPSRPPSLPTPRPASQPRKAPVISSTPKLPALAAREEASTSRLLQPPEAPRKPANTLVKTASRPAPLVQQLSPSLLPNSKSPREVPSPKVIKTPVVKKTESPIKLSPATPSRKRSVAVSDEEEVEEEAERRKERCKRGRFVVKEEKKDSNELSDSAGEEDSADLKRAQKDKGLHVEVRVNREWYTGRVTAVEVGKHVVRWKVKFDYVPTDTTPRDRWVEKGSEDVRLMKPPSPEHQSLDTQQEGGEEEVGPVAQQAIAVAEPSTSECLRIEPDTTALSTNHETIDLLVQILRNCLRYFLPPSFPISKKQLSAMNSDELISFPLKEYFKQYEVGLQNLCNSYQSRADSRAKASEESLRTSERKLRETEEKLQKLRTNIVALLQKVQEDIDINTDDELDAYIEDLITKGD
The data set is described as follows: fluorescence anisotropy. Particulars: FA: 50 mM NaCl, 3 mM MgCl2, 20 mM Na-HEPES pH 7.4, 1 mM TCEP, 10% glycerol, 0.025 mM ZnCl2, 50 ug/ml BSA, 1 nM nucleic acid, room temperature.

Data set [2] deals with the molecule itself. The experiment in a line: SEC-MALS; full-length MORC2 2 mg/mL, 150 mM NaCl, 3 mM MgCl2, 20 mM Na-HEPES pH 7.4, 0.5 mM TCEP, 1.5% glycerol, 0.025 mM ZnCl2, without AMP-PNP; Wyatt 030 column.
Data set [3] concerns the molecule itself. The experiment in a line: SEC-MALS; coiled coil 3 1.5 mg/mL, 150 mM NaCl, 3 mM MgCl2, 20 mM Na-HEPES pH 7.4, 0.5 mM TCEP, 1.5% glycerol, 0.025 mM ZnCl2; Wyatt 010 column.

For “ATATCGATGTATATATCTGACACGTGCCTGGAGACTAGGGAGTAATCCCCTTGGCGGTTAAAACGCGGGGGACAGCGCGTACGTGCGTTTAAGCGGTGCTAGAGCTGTCTACGACCAATTGAGCGGCCTCGGCACCGGGATTCTGATAT (double strand) [Nucleosome on 2-601-2 DNA]”, the Kd in data set [1] is 16 nM. This lies in the double-digit nanomolar range.

B1: full-length human MORC2 (natural protein, UniProt Q9Y6X9 1-1032, looked up)
chain: MAFTNYSSLNRAQLTFEYLHTNSTTHEFLFGALAELVDNARDADATRIDIYAERREDLRGGFMLCFLDDGAGMDPSDAASVIQFGKSAKRTPESTQIGQYGNGLKSGSMRIGKDFILFTKKEDTMTCLFLSRTFHEEEGIDEVIVPLPTWNARTREPVTDNVEKFAIETELIYKYSPFRTEEEVMTQFMKIPGDSGTLVIIFNLKLMDNGEPELDIISNPRDIQMAETSPEGTKPERRSFRAYAAVLYIDPRMRIFIHGHKVQTKRLSCCLYKPRMYKYTSSRFKTRAEQEVKKAEHVARIAEEKAREAESKARTLEVRLGGDLTRDSRVMLRQVQNRAITLRREADVKKRIKEAKQRALKEPKELNFVFGVNIEHRDLDGMFIYNCSRLIKMYEKVGPQLEGGMACGGVVGVVDVPYLVLEPTHNKQDFADAKEYRHLLRAMGEHLAQYWKDIAIAQRGIIKFWDEFGYLSANWNQPPSSELRYKRRRAMEIPTTIQCDLCLKWRTLPFQLSSVEKDYPDTWVCSMNPDPEQDRCEASEQKQKVPLGTFRKDMKTQEEKQKQLTEKIRQQQEKLEALQKTTPIRSQADLKKLPLEVTTRPSTEEPVRRPQRPRSPPLPAVIRNAPSRPPSLPTPRPASQPRKAPVISSTPKLPALAAREEASTSRLLQPPEAPRKPANTLVKTASRPAPLVQQLSPSLLPNSKSPREVPSPKVIKTPVVKKTESPIKLSPATPSRKRSVAVSDEEEVEEEAERRKERCKRGRFVVKEEKKDSNELSDSAGEEDSADLKRAQKDKGLHVEVRVNREWYTGRVTAVEVGKHVVRWKVKFDYVPTDTTPRDRWVEKGSEDVRLMKPPSPEHQSLDTQQEGGEEEVGPVAQQAIAVAEPSTSECLRIEPDTTALSTNHETIDLLVQILRNCLRYFLPPSFPISKKQLSAMNSDELISFPLKEYFKQYEVGLQNLCNSYQSRADSRAKASEESLRTSERKLRETEEKLQKLRTNIVALLQKVQEDIDINTDDELDAYIEDLITKGD
notes: Cloned into both 438-B (N-terminal His6-TEV) and 438-C (N-terminal His6-MBP-TEV); the tag was removed with TEV protease; also called wildtype MORC2; dephosphorylated MORC2; not shown: His6, N-terminal, cleaved
Regarding B1, the “stoichiometry N” value in data set [2] was found to be 2.

B2: MORC2 coiled coil 3 (domain or fragment, human, UniProt Q9Y6X9 900-1032, looked up)
chain: ALSTNHETIDLLVQILRNCLRYFLPPSFPISKKQLSAMNSDELISFPLKEYFKQYEVGLQNLCNSYQSRADSRAKASEESLRTSERKLRETEEKLQKLRTNIVALLQKVQEDIDINTDDELDAYIEDLITKGD
notes: also called CC3; source: E. coli BL21 (DE3) RIL, purified (HisTrap, TEV cleavage, S75 SEC); not shown: His6, N-terminal, cleaved
In the case of B2, the “stoichiometry N” value in data set [3] turned out to be 2.
